Assay [1] has as its target htt^ex1Q7 (huntingtin exon-1 polypeptide with seven glutamines). Kind of assay: NMR titration.
The target in assay [2] is huntingtin exon 1 (httex1Q7) dimer exon 1 (Homo sapiens) (UniProt P42858). The following applies: cited from earlier work.
Assay [3] concerns the target PL: binary complex of monomeric htt^ex1Q7 with Fyn SH3 (not stated | Gallus gallus) (UniProt Q05876). The assay can be described thus: NMR titration.

The Kd is the equilibrium constant for the complex coming apart. One may read the stoichiometry N as the number of molecules, sites or subunits per partner or assembly.

The substance “Gallus gallus tyrosine kinase Fyn SH3 domain (wild type) (from UniProt Q05876 85-135) (domain or fragment)” showed a dissociation constant (Kd) in assay [1] of 210 µM.

For the substance “huntingtin exon 1 (httex1Q7) dimer exon 1 (from UniProt P42858)”, the dissociation constant (Kd) in assay [2] is 25 µM.

“PL: binary complex of monomeric htt^ex1Q7 with Fyn SH3 (from UniProt Q05876 85-135)” yielded a stoichiometry N in assay [3] of 2.

The values are drawn from PMC8855710.
